Consider 3 molecules from patent US20090081195A1 (OTTAWA HEALTH RESEARCH INSTITUTE, published 2009).

T1: GST-SLK 950-1202 (GST-tagged SLK ATH domain) (murine, UniProt O54988 981-1233)
T1 construct: Bacterially expressed GST fusion on glutathione sepharose; also called GST-ATH; not shown: glutathione S-transferase (GST) tag of pGEX-5X or pGEX-4T1 (Amersham)
T1 sequence: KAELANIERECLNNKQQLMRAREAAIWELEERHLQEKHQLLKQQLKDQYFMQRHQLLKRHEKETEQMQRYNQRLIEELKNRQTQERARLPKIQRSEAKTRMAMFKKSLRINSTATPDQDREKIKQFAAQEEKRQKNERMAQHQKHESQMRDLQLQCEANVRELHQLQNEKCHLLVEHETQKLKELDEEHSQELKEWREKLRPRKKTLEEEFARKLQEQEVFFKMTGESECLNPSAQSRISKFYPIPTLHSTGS

B1: HA-Ldb2 DD (aa 1-186) (other, mouse, UniProt O55203 1-186, looked up, not shown: small tags and cut ends)
chain: MSSTPHDPFYSSPFGPFYRRHTPYMVQPEYRIYEMNKRLQSRTEDSDNLWWDAFATEFFEDDATLTLSFCLEDGPKRYTIGRTLIPRYFSTVFEGGVTDLYYILKHSKESYHNSSITVDCDQCAMVTQHGKPMFTKVCTEGRLILEFTFDDLMRIKTWHFTIRQYRELVPRSILAMHAQDPQVLDQ
modifications: [35S]-methionine label
notes: In vitro translated; also called Ldb2 dimerization domain
B2: HA-Ldb2 LBD (aa 298-373) (other, mouse, UniProt O55203 298-373, looked up, not shown: small tags and cut ends)
chain: DVMVVGEPTLMGGEFGDEDERLITRLENTQYDAANGMDDEEDFNNSPALGNNSPWNSKPPATQETKSENAPPQASQ
modifications: [35S]-methionine label
notes: In vitro translated
B3: HA-Ldb2 NLS (aa 188-288) (other, mouse, UniProt O55203 188-288, looked up, not shown: small tags and cut ends)
chain: SKNITRMGLTNFTLNYLRLCVILEPMQELMSRHKTYNLSPRDCLKTCLFQKWQRMVAPPAEPTRQPTTKRRKRKNSTSSTSNSSAGNTTNSAGSKKKTPAA
modifications: [35S]-methionine label
notes: range 188-288; In vitro translated; also called Ldb2 nuclear localization signal domain

The assay deals with T1, GST-SLK 950-1202 (GST-tagged SLK ATH …). The assay can be described thus: binding of [35S]-labeled Ldb2 deletions to GST-ATH. The procedure:
(c) Schematics of Myc epitope-tagged SLK deletion mutants. […] (d) Co-transfection of HA-tagged Ldb2 and Myc-tagged SLK deletion constructs was performed in HEK 293 cells. Extracts were immunoprecipitated with anti-HA antibody (12CA5) and immunoblotted with anti-Myc antibody (9E10) (bottom panel). Expression of the transfected constructs was confirmed by western blotting (top and middle panels). […] (e) Reciprocal co-IP showing that full length HA-SLK associates with Myc-Ldb1 and 2. (f) Association of endogenous SLK and Ldb. Ldb1 was immunoprecipitated from protein lysates obtained from MEF cells and primary neurons and subjected to western blot analysis with an anti-SLK antibody. A 220 KDa band corresponding to SLK co-precipitated with […]. Reciprocal immunoprecipitations were also performed on N1E 115 neuroblastoma cells or primary cortical neurons. A 50 Kda band corresponding to Ldb1 co-precipitated with SLK. As a control for non-specific binding to the sepharose beads, protein-A sepharose beads alone were added to 400 μg of the same protein lysates. Similar results were obtained with Ldb2
To map the Ldb1/2 domains of interaction, [35S]-labeled deletions of Ldb1 were assayed for binding to a GST-tagged SLK ATH domain (FIG. 17a). […] In addition, versions of Ldb2 lacking the C-terminal LIM binding domain (ΔLBD) were able to bind the SLK ATH domain while the LBD of Ldb2 by itself could not bind (FIG. 17b). Further deletion of 62 amino acids from the carboxy terminal end of the dimerization domain (DDΔC) retained binding thus refining the Ldb2 binding region to the SLK ATH domain in the C-terminal 124 amino acids of Ldb2. An analogous set of Ldb1 deletion mutants were tested for binding to GST-ATH with similar results (data not shown).
With B1, the binding result is listed as “binds”.

As for B2, the binding result is “no binding”.

As to B3, the binding result is “binds”.
